# Reference: patent publication US20210032331A1 (PHANES THERAPEUTICS, published 2021)
# T1: human LAG-3(ECD)-mFc (human, UniProt P18627 23-450)
# T1 construct: also called hLAG3-mFc; human LAG-3 extracellular domain (ECD) fused to mouse Fc; not shown: mouse Fc
# T1 sequence: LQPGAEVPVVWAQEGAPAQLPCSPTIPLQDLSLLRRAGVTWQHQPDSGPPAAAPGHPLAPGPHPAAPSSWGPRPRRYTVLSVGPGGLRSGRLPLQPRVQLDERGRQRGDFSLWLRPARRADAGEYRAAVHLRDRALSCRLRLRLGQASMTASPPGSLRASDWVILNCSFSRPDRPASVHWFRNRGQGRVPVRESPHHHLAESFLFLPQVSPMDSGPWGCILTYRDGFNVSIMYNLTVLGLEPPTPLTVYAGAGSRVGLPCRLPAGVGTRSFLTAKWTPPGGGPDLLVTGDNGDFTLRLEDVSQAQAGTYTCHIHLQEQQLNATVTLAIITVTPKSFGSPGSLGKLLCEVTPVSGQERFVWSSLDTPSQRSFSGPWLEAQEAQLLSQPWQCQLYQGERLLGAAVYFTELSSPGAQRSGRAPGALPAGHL
# Target: T1, human LAG-3(ECD)-mFc
# Test: FACS competition: mAb preincubated with human LAG-3(ECD)-mFc (1 ug/ml); binding to MHC class II on Daudi cells detected with anti-mouse Fc-PE
# Description: Human Daudi cells were cultured in RPMI+10% FBS. Human LAG-3(ECD)-mFc protein (human LAG-3 ECD fused to mouse Fc) at 1 μg/ml final concentration was incubated with purified mouse, humanized, or chimeric anti-LAG-3 mAbs at various concentrations for 15 minutes at 4° C. The mixture was then added to 100,000 human Daudi cells in a 96-well round bottom plate, mixed and incubated for 15 minutes on ice. Cells were then centrifuged at 1,000 rpm for 5 minutes and washed with FACS buffer (PBS supplemented with 5% BSA) three times. The cells were then incubated with PE-conjugated goat anti-mouse Fc polyclonal antibodies on ice for 15 minutes, washed with FACS buffer three times and then resuspended in FACS buffer containing 0.1 μg/ml PI (propidine iodine) for live/dead cell gating. Cells were then run through the FACS Caliber instrument and the data were analyzed by the Flowjo software. Results of the inhibition of LAG-3 binding to Daudi cells by chimeric mAbs B1C, B3C, B4C, BSC, B9C, and B11C are shown in FIG. 4B.
# The mouse anti-hLAG-3 mAbs B5 and B7 were humanized to reduce the potential of immunogenicity when used in human patients. The CDRs in both the heavy and light chains of the mouse mAb were grafted into human framework that have the highest possibility of maintaining the proper structure required for antigen binding. Backmutations from human reside to mouse residue were designed when necessary. The sequences of the humanized VH and VL regions are shown in Table 11 and Table 12, respectively. The humanized VH and VL regions were fused to the constant regions of human IgG4 heavy chain and kappa light chain, respectively, to generate humanized mAbs. Constructs corresponding to the mAb sequences were used for transient transfection in 293E cells. Purified mAbs were analyzed for their ability to inhibit hLAG-3 binding to MHC class II molecules on Daudi cells.
row,Binder,IC50 [nM]
1,"B7(H2L5) (antibody, V domains shown, Humanized VH and VL fused to constant regions of human IgG4 heavy chain and kappa light chain; also called humanized B7 with B7/H2 heavy chain and B7/L5 light chain) VH: EVQLVQSGAEVKKPGASVKVSCKASGYTFSDYNLNWVRQAPGQTLEWMGLINLDSAATVYNQKFKGRVTMTRDTSTSTVYMELSSLRSEDTAVYYCASYDYWGQGTLVTVSS VL: DIQMTQSPSSLSASVGDRVTITCRASQDISHYLNWFQQKPGKAPKLLIYETSTLDFGVPSRFSGSGSGTDFTFTISSLQPEDIATYYCLQYATYPLTFGGGTKVEIK",1.59
2,"B7(H2L8) (antibody, V domains shown, Humanized VH and VL fused to constant regions of human IgG4 heavy chain and kappa light chain; also called humanized B7 with B7/H2 heavy chain and B7/L8 light chain) VH: EVQLVQSGAEVKKPGASVKVSCKASGYTFSDYNLNWVRQAPGQTLEWMGLINLDSAATVYNQKFKGRVTMTRDTSTSTVYMELSSLRSEDTAVYYCASYDYWGQGTLVTVSS VL: DIQMTQSPSSLSASVGDRVTITCRASQDISHYLNWFQQKPGKAPKRLIYETSTLDFGVPSRFSGSGSGTDFTFTISSLQPEDIATYYCLQYATYPLTFGGGTKVEIK",0.74
3,"B7(H3L5) (antibody, V domains shown, Humanized VH and VL fused to constant regions of human IgG4 heavy chain and kappa light chain; also called humanized B7 with B7/H3 heavy chain and B7/L5 light chain) VH: EVQLVQSGAEVKKPGASVKVSCKASGYTFSDYNLNWVRQAPGQGLEWMGLINLDSAATVYNQKFKGKATMTRDTSTSTVYMELSSLRSEDTAVYYCASYDYWGQGTLVTVSS VL: DIQMTQSPSSLSASVGDRVTITCRASQDISHYLNWFQQKPGKAPKLLIYETSTLDFGVPSRFSGSGSGTDFTFTISSLQPEDIATYYCLQYATYPLTFGGGTKVEIK",4.18
4,"B7(H3L8) (antibody, V domains shown, Humanized VH and VL fused to constant regions of human IgG4 heavy chain and kappa light chain; also called humanized B7 with B7/H3 heavy chain and B7/L8 light chain) VH: EVQLVQSGAEVKKPGASVKVSCKASGYTFSDYNLNWVRQAPGQGLEWMGLINLDSAATVYNQKFKGKATMTRDTSTSTVYMELSSLRSEDTAVYYCASYDYWGQGTLVTVSS VL: DIQMTQSPSSLSASVGDRVTITCRASQDISHYLNWFQQKPGKAPKRLIYETSTLDFGVPSRFSGSGSGTDFTFTISSLQPEDIATYYCLQYATYPLTFGGGTKVEIK",0.66
5,"B7(H4L8) (antibody, V domains shown, Humanized VH and VL fused to constant regions of human IgG4 heavy chain and kappa light chain; also called humanized B7 with B7/H4 heavy chain and B7/L8 light chain) VH: EVQLVQSGAEVKKPGASVKVSCKASGYTFSDYNLNWVRQAPGQTLEWMGLINLDSAATVYNQKFKGKATMTRDQSTSTAYMELSSLRSEDTAVYYCASYDYWGQGTLVTVSS VL: DIQMTQSPSSLSASVGDRVTITCRASQDISHYLNWFQQKPGKAPKRLIYETSTLDFGVPSRFSGSGSGTDFTFTISSLQPEDIATYYCLQYATYPLTFGGGTKVEIK",0.7
6,"B7(H5L5) (antibody, V domains shown, Humanized VH and VL fused to constant regions of human IgG4 heavy chain and kappa light chain; also called humanized B7 with B7/H5 heavy chain and B7/L5 light chain) VH: EVQLVQSGAEVKKPGASVKVSCKASGYSFSDYNLNWVRQAPGQTLEWMGLINLDSAATVYNQKFKGKATMTIDQSTSTAYMELSSLRSEDTAVYYCASYDYWGQGTLVTVSS VL: DIQMTQSPSSLSASVGDRVTITCRASQDISHYLNWFQQKPGKAPKLLIYETSTLDFGVPSRFSGSGSGTDFTFTISSLQPEDIATYYCLQYATYPLTFGGGTKVEIK",0.28
7,"B7(H5L8) (antibody, V domains shown, Humanized VH and VL fused to constant regions of human IgG4 heavy chain and kappa light chain; also called humanized B7 with B7/H5 heavy chain and B7/L8 light chain) VH: EVQLVQSGAEVKKPGASVKVSCKASGYSFSDYNLNWVRQAPGQTLEWMGLINLDSAATVYNQKFKGKATMTIDQSTSTAYMELSSLRSEDTAVYYCASYDYWGQGTLVTVSS VL: DIQMTQSPSSLSASVGDRVTITCRASQDISHYLNWFQQKPGKAPKRLIYETSTLDFGVPSRFSGSGSGTDFTFTISSLQPEDIATYYCLQYATYPLTFGGGTKVEIK",0.72
8,"B7(H6L5) (antibody, V domains shown, Humanized VH and VL fused to constant regions of human IgG4 heavy chain and kappa light chain; also called humanized B7 with B7/H6 heavy chain and B7/L5 light chain) VH: EFQLVQSGAEVKKPGASVKVSCKASGYSFSDYNLNWVRQAPGQTLEWMGLINLDSAATVYNQKFKGKATMTIDQSTSTAYMELSSLRSEDTAVYYCASYDYWGQGTLVTVSS VL: DIQMTQSPSSLSASVGDRVTITCRASQDISHYLNWFQQKPGKAPKLLIYETSTLDFGVPSRFSGSGSGTDFTFTISSLQPEDIATYYCLQYATYPLTFGGGTKVEIK",0.78
9,"B7(H6L8) (antibody, V domains shown, Humanized VH and VL fused to constant regions of human IgG4 heavy chain and kappa light chain; also called humanized B7 with B7/H6 heavy chain and B7/L8 light chain) VH: EFQLVQSGAEVKKPGASVKVSCKASGYSFSDYNLNWVRQAPGQTLEWMGLINLDSAATVYNQKFKGKATMTIDQSTSTAYMELSSLRSEDTAVYYCASYDYWGQGTLVTVSS VL: DIQMTQSPSSLSASVGDRVTITCRASQDISHYLNWFQQKPGKAPKRLIYETSTLDFGVPSRFSGSGSGTDFTFTISSLQPEDIATYYCLQYATYPLTFGGGTKVEIK",1.19
